Measured values: paper PMC11160672 (bioRxiv, 2024)

B1: Acetyl-CoA carboxylase carboxyltransferase subunit AccA (enzyme)
chain: MSLNFLDFEQPIAELEAKIDSLTAVSRQDEKLDINIDEEVHRLREKSVELTRKIFADLGAWQIAQLARHPQRPYTLDYVRLAFDEFDELAGDRAYADDKAIVGGIARLDGRPVMIIGHQKGRETKEKIRRNFGMPAPEGYRKALRLMQMAERFKMPIITFIDTPGAYPGVGAEERGQSEAIARNLREMSRLGVPVVCTVIGEGGSGGALAIGVGDKVNMLQYSTYSVISPEGCASILWKSADKAPLAAEAMGIIAPRLKELKLIDSIIPEPLGGAHRNPEAMAASLKAQLLADLADLDVLSTEDLKNRRYQRLMSYGYA
B2: Acetyl-CoA carboxylase carboxyltransferase subunit AccD (enzyme, E. coli, UniProt P0A9Q5 1-304, looked up)
chain: MSWIERIKSNITPTRKASIPEGVWTKCDSCGQVLYRAELERNLEVCPKCDHHMRMTARNRLHSLLDEGSLVELGSELEPKDVLKFRDSKKYKDRLASAQKETGEKDALVVMKGTLYGMPVVAAAFEFAFMGGSMGSVVGARFVRAVEQALEDNCPLICFSASGGARMQEALMSLMQMAKTSAALAKMQERGLPYISVLTDPTMGGVSASFAMLGDLNIAEPKALIGFAGPRVIEQTVREKLPPGFQRSEFLIEKGAIDMIVRRPEMRLKLASILAKLMNLPAPNPEAPREGVVVPPVPDQEPEA

Legend:
Biotin carboxylase AccC = Biotin carboxylase AccC (E. coli, UniProt P24182 1-449); assay: SEC
[1] = molecular target: B1; assay: cryo-EM structure

stoichiometry N (Biotin carboxylase AccC) | binding result [1] | Binder
~1 |  | B1
~1 | binds | B2
